Legend:
食蟹猴TSLP = 食蟹猴TSLP (cynomolgus monkey (食蟹猴), UniProt A0A7N9CAT7 29-159); test: cell-based or functional assay
[1] = molecular target: T1, 人胸腺基质淋巴细胞生成素 (Human Thymic Stromal Lymphopoietin, TSLP) (human, UniProt Q969D9 29-159); test: SPR, Biacore T200, 25°C, antibody captured on Protein A chip, human TSLP as analyte, 1:1 model, mean of three runs
T1 construct: also called 人TSLP; hTSLP

[2] = molecular target: T1, 人胸腺基质淋巴细胞生成素 (Human Thymic Stromal …); test: cell-based or functional assay

Chain of 食蟹猴TSLP (A0A7N9CAT7 entry or part of it): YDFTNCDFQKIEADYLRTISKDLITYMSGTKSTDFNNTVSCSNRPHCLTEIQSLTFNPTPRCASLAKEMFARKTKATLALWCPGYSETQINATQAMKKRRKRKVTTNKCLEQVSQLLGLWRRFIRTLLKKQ

抑制食蟹猴TSLP诱导的SW756-STAT5-Luciferase报告基因细胞STAT5磷酸化活性的IC50 (食蟹猴TSLP) [ng/mL]	Kd [1] [pM]	koff [1] [s⁻¹]	kon [1] [M⁻¹ s⁻¹]	抑制人TSLP诱导的PBMC细胞释放TARC(CCL17)活性的IC50 [2] [ng/mL]	抑制人TSLP诱导的SW756-STAT5-Luciferase报告基因细胞STAT5磷酸化活性的IC50 [2] [ng/mL]	抑制人TSLP诱导的全血释放TARC(CCL17)活性的IC50 [2] [ng/mL]	Binder
1.88	–	–	–	–	–	–	Tezepelumab (antibody, V domains shown) VH: QMQLVESGGGVVQPGRSLRLSCAASGFTFRTYGMHWVRQAPGKGLEWVAVIWYDGSNKHYADSVKGRFTITRDNSKNTLNLQMNSLRAEDTAVYYCARAPQWELVHEAFDIWGQGTMVTVSS VL: SYVLTQPPSVSVAPGQTARITCGGNNLGSKSVHWYQQKPGQAPVLVVYDDSDRPSWIPERFSGSNSGNTATLTISRGEAGDEADYYCQVWDSSSDHVVFGGGTKLTVLG
0.889	17.5	2.99e-05	1.74e+06	77.1	0.837	0.839	QX008N (HZD8G2-57) (antibody, V domains shown) VH: EVQLVESGGGLVQPGGSLRLSCAASGFSLSSYYMSWVRQAPGKGLEWVGFISYGGSAYHATWAQGRFTISKDNSKNTLYLQMNSLRAEDTAVYYCAREFRSMTYGAEWGIWGQGTLVTVSS VL: AYQMTQSPSSVSASVGDRVTITCQASESIYDTLAWYQQKPGKAPKLLIYSASSLASGVPSRFSGSGSGTDFTLTISSLQPEDFATYYCQQGYTMPDVDKNPFGGGTKVEIKR

From CN114605536A (JIANGSU QUANXIN BIOMEDICINE CO LTD, dated 2022)
